Experimental data as given in paper PMC6530996, “HspB1 phosphorylation regulates its intramolecular dynamics and mechanosensitive molecular chaperone interaction with filamin C” (Science Advances, 2019).

Experiment: ion mobility collision cross-section
Type: physicochemical
Conditions: native IM-MS, N2, calibrated with β-lactoglobulin and avidin
From the text: To isolate a stable HspB1-FLNCd18–21 complex and localize the binding within HspB1, we performed native ion mobility MS (IM-MS) experiments. […] Next, we mixed FLNCd18–21 with either HspB1_84–171 or peptides mimicking the PPR, because this region is phosphorylated in the MLP KO mice (Fig. 1C) and generally upon biomechanical stress ([26]) and becomes exposed thereafter. This strategy of using segments of HspB1 meant that we could avoid the problems of insolubilization of the full-length protein upon interaction with FLNC d18–21, as well as generally mitigate the confounding effects associated with the chaperone’s intrinsic polydispersity.
Because HspB1 can form disulfide-linked dimers, experiments involving the ACD were performed in the presence of 10-fold molar excess DTT. Gold-plated capillaries were prepared in-house. Native MS and IM-MS data were recorded on a Synapt G1 mass spectrometer (Waters) modified for the transmission of intact noncovalent protein complexes. HspB1_77–171 variants were analyzed at a concentration of 10 μM in 200 mM ammonium acetate (pH 6.9). […]
CCSs (Ω) of models from the PDB (trimmed in PyMOL as described in the Supplementary Materials) were calculated by the projection approximation method using IMPACT ([60]), accounting for N2 as the collision gas. […]

B1: FLNCd18–21: Human FLNC domains 18-21 (protein)
chain: TAKITGDDSMRTSQLNVGTSTDVSLKITESDLSQLTASIRAPSGNEEPCLLKRLPNRHIGISFTPKEVGEHVVSVRKSGKHVTNSPFKILVGPSEIGDASKVRVWGKGLSEGHTFQVAEFIVDTRNAGYGGLGLSIEGPSKVDINCEDMEDGTCKVTYCPTEPGTYIINIKFADKHVPGSPFTVKVTGEGRMKESITRRRQAPSIATIGSTCDLNLKIPGNWFQMVSAQERLTRTFTRSSHTYTRTERTEISKTRGGETKREVRVEESTQVGGDPFPAVFGDFLGRERLGSFGSITRQQEGEASSQDMTAQVTSPSGKVEAAEIVEGEDSAYSVRFVPQEMGPHTVAVKYRGQHVPGSPFQFTVGPLGEGGAHKVRAGGTGLERGVAGVPAEFSIWTREAGAGGLSIAVEGPSKAEIAFEDRKDGSCGVSYVVQEPGDYEVSIKFNDEHIPDSPFVVPVASLSDDA
modifications: left off: His6, C-terminal, state not stated | EEF, C-terminal, kept
collision cross section (CCS): 37.2 ± 0.8 nm^2
